From US20140087991A1, “PEPTIDE PRODRUGS” (The Johns Hopkins University, priority 2006, published 2014)

Columns and labels:
[1] = biological target: T1, FAP (Homo sapiens, UniProt Q12884); experiment: FAP gelatinase and collagenase assay with quenched (DQ) proteins; assay type: biochemical
T1 construct: the extracellular domain of FAP was cloned with a His-6 tag; made in house
T1 sequence (Q12884 26-760 limits assumed): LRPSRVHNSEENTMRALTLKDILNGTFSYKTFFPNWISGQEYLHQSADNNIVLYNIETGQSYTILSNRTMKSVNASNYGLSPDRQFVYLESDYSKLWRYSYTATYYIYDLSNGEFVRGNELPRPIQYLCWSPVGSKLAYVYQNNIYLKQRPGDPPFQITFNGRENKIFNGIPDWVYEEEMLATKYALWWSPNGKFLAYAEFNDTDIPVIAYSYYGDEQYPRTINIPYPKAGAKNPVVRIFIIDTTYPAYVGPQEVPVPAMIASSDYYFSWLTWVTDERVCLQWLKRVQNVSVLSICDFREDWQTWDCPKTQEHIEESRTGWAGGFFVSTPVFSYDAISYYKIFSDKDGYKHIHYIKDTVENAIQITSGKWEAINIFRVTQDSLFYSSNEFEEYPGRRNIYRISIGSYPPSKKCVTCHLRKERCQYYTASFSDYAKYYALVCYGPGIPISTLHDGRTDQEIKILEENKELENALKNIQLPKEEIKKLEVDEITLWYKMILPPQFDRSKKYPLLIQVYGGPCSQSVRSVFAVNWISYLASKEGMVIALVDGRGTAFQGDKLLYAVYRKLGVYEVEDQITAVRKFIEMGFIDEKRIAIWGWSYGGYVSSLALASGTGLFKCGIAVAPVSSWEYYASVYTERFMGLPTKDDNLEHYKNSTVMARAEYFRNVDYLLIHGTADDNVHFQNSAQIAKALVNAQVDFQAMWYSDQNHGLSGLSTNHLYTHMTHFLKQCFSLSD
Description: Quenched gelatin and collagen conjugates were used to detect and confirm FAP's gelatinase and collagenase activity. DQ™ Gelatin from pig skin, DQ™ collagen, type IV from human placenta, DQ™ collagen, type I from bovine skin, all as fluorescent conjugates (Invitrogen, Rockville, Md.) were digested with FAP and digestion monitored on a fluorescence plate reader. Protein substrates were dissolved in reaction buffer (100 mM NaCl, 100 mM Tris, pH 7.8) to a final concentration of 100 μgs/ml. Trypsin digestion was used as a positive control. As a negative control the His tagged extra cellular domain of Prostate Specific Membrane Antigen (PSMA), which was similarly purified from S2 cells under the same conditions as FAP. Fluorescent quenched DQ™ Bovine Serum Albumin was used as a negative control for FAP protease activity.
Quenched forms of Gelatin and Collagen were used to confirm the gelatinase and collagenase activity of recombinant FAP. Quenching is achieved by labeling these proteins with the fluorophore FITC such that fluorescence signal from the intact protein is minimal due to is self-quenching by the fluorphore. Protein digestion releases FITC-labeled fragments that result in measurable increase in overall fluorescence signal from the reaction mixture. […] On a relative basis gelatin was digested ˜10-fold better by FAP than collagen I. MALDI analysis of digested fragments was performed to confirm hydrolysis.

[2] = biological target: T1, FAP; experiment: LC-MS/MS cleavage map of FAP digest of 8.5 kDa recombinant human gelatin; assay type: biochemical; conditions: 8.5 kDa gelatin digest; for Normalized Ion Current: peak with lowest ion current assigned 1.0
Description: (§1) Human collagen I (Becton Dickinson, Franklin Lakes, N.J.) and recombinant human gelatins of 100 KDa and 8.5 KDa (Fibrogen, San Francisco, Calif.) were dissolved in reaction buffer to a final concentration of 100-300 μg/ml. 0.5-1 μg of FAP was added per 100 μgs of protein substrate. Digestion was done for 4-6 hrs at 37° C. As a positive control trypsin digestion was used. As a negative control, protein solutions were incubated either with BSA or buffer only. Peptide fragments of a size <30 KDa were purified using 30 KDa Microcon spin filter (Millipore, Billerica, Mass.).
(§2) Peptides obtained from FAP/gelatin digests were dried using a speedvac (Eppendorf), resuspended in LC/MS loading buffer (3% ACN, 0.1% formic acid), and analyzed using nano-flow LC/MS/MS on an Agilent 1100 series nano-LC system (Agilent) coupled to an LCQ Duo ion trap mass spectrometer (ThermoFinnigan). Peptides were pre-concentrated on a 5 mm Zorbax C18 trap column (Agilent) and then eluted onto a 100×0.075 mm custom-packed Biobasic C18 (ThermoElectron) reversed phase capillary column connected to a laser-pulled electrospray ionization emitter tip (New Objective) at a flowrate of 300 nl/min Peptides were eluted the nanospray source of the LCQ (Proxeon, Denmark) using the following gradient: 0% B at 0 min, 5% B at 8 min, 45% B at 50 min, 90% B at 55 min, 90% B at 60 min (B=0.1% formic acid in acetonitrile) at a spray voltage of 2.5 kV. The LCQ was operated in data-dependent mode using the Xcalibur software (ThermoFinnigan) in which every MS scan (400-1800 m/z) was followed by MS/MS scans (400-1800 m/z) on the 3 most intense ions using an isolation window of ±1.5 Da. Ions selected for MS/MS fragmentation were dynamically excluded for 30 s.
(§3) MS/MS data were searched against a collagen FASTA database using the SEQUEST search algorithm built into the Bioworks Browser (ThermoFinnigan) allowing for the variable modification of Methionine oxidation. Peptides were initially filtered in a charge dependent manner using an XCorr filter of 1.5, 2, and 2.5 for singly, doubly, and triply charged peptides. All MS/MS spectra used to identify peptides were manually inspected for validation of y and b-ion series. To quantify the relative abundance of each identified peptide we compared the ion current for each of the observed peptide parent ions from the MS spectra. The contribution of each parent ion to the total ion current was extracted and integrated over the peptide elution peak.
As Collagen I and Gelatin are currently the only known protein substrates for FAP, we needed to develop an alternative method to identify FAP-selective cleavage sites within these proteins. […] The masses of fragments <3 KDa were purified for MALDI spectra and again analyzed by FindPept tool. […]

[3] = biological target: T1, FAP; experiment: LC-MS/MS cleavage map of FAP digest of 100 kDa recombinant human gelatin; assay type: biochemical; conditions: 100 kDa gelatin digest; for Percentage: share of all occurrences
Description: as §1, §2, §3
To resolve each particular mass fragment a Liquid Chromatograpy (LC) and Tandem mass spectroscopy (MS-MS) [LC-MS-MS] method was developed. Using this method, peptide fragments from FAP digests of the 8.5 kDa and 100 kDa recombinant gelatin were time-resolved by nano reverse phase LC (FIGS. 12 and 14) and then sequenced using an ion trap mass spectrometer operating in MS/MS mode. Initial methodological issues were worked out using the 8.5 kDa fragment before analyzing the entire 100 kDa protein. MS/MS spectra were searched against the 8.5 kDa and 100 kDa gelatin sequences using the SEQUEST algorithm with no cleavage specificity. Most of the identified cleavage sites in both sized gelatins occurred after Proline. However, FAP cleavage sites in these gelatins were not restricted to Proline alone. FAP was also found to cleave after Ala (e.g. A/A, A/G, A/P, A/R), Asp (e.g. D/G, D/T), Gly (e.g. G/A, G/E, G/L, G/Q, G/P, G/V), Glu (i.e., E/P), Lys (i.e., K/A, K/G), Ser (e.g. S/P) and Val (e.g. V/G).
To identify the most preferentially cleaved sites, we relatively quantified the abundance of each of the identified peptides by integrating the ion current generated by each peptide throughout the chromatogram. After identification of a peptide from a MS/MS spectrum, we extracted the ion current for the parent mass of the ion from the total MS ion chromatogram using a 1.5 Da tolerance window, and then integrated under the peak (FIGS. 12 and 14). […]

[4] = biological target: T2, FAP (Homo sapiens, UniProt Q12884); conditions: previously demonstrated; cited from earlier work
T2 sequence (Q12884 1-760): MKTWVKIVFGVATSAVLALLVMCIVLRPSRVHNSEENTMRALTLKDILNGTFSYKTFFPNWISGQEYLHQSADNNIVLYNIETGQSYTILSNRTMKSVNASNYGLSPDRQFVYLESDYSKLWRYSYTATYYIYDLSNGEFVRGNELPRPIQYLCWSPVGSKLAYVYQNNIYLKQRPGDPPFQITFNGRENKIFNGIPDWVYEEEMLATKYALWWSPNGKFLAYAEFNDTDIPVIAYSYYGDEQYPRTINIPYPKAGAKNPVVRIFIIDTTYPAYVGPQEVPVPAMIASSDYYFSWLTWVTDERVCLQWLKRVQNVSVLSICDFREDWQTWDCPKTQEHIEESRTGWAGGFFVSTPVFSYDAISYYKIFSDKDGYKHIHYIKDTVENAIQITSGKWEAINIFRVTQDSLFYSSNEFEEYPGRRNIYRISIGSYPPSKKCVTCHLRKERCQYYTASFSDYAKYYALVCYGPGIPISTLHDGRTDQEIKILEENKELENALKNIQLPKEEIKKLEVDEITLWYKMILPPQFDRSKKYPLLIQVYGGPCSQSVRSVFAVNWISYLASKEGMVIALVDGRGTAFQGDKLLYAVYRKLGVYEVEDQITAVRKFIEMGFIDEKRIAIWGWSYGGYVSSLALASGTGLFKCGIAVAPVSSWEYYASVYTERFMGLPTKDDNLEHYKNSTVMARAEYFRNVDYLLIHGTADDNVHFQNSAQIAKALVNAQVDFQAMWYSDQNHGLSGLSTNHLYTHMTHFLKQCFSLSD

Row | Occurences [3] | Percentage [3] | Substance | other results
1 |  |  | Gelatin | digestion by FAP relative to collagen I [1]: ~10 fold; hydrolysis of FITC-quenched protein by FAP ([1]; 100 μgs/ml protein substrate): readily hydrolyzed
2 | 2 | 0.95 | P.PGLAGPPGESGREGAPGAEGSPGRD.G: FAP cleavage fragment, 100 kDa recombinant human gelatin | 
3 | 2 | 0.95 | P.PGPAGAPGDKGESGP.S: FAP cleavage fragment, 100 kDa recombinant human gelatin | 
4 | 2 | 0.95 | P.QGFQGPPGEPGEPGASGP.M: FAP cleavage fragment, 100 kDa recombinant human gelatin | 
5 | 3 | 1.43 | P.QGVRGEPGPPGP.A: FAP cleavage fragment, 100 kDa recombinant human gelatin | 
6 | 14 | 6.67 | P.RGPPGSAGAPGKDGLNGLPGP.I: FAP cleavage fragment, 100 kDa recombinant human gelatin | 
7 | 4 | 1.90 | P.SGEPGKQGPSGASGERGPPGP.M: FAP cleavage fragment, 100 kDa recombinant human gelatin | 
8 | 14 | 6.67 | P.SGNAGPPGPPGP.A: FAP cleavage fragment, 100 kDa recombinant human gelatin | 
9 | 13 | 6.19 | P.TGARGAPGDRGEPGPPGP.A: FAP cleavage fragment, 100 kDa recombinant human gelatin | 
10 | 3 | 1.43 | P.VGPPGPPGPP.G: FAP cleavage fragment, 100 kDa recombinant human gelatin | 
11 | 3 | 1.43 | P.VGVQGPPGP.A: FAP cleavage fragment, 100 kDa recombinant human gelatin | 
12 | 2 | 0.95 | V.GPPGPPGPP.G: FAP cleavage fragment, 100 kDa recombinant human gelatin | 
13 |  |  | fibronectin | cleavage by FAP [4]: not

Row | Substance | Occurences [3] | Percentage [3] | other results
14 | P.AGKDGEAGAQGPPGP.A: FAP cleavage fragment of 100 kDa and 8.5 kDa recombinant human gelatin, MH+ 1308.62 (PAGKDGEAGAQGPPGPA) | 2 | 0.95 | relative abundance of fragment by integrated ion current [2]: most abundantly identified fragment; Normalized Ion Current [2]: 234.8
15 | P.AGQDGRPGPPGPPGARGQAG.V: FAP cleavage fragment of 100 kDa and 8.5 kDa recombinant human gelatin, MH+ 1799.89 | 1 | 0.48 | Normalized Ion Current [2]: 1.0
16 | P.KGAAGEPGKAGERGVPGPPGAVGP.A: FAP cleavage fragment of 100 kDa and 8.5 kDa recombinant human gelatin, MH+ 2113.12 | 5 | 2.38 | Normalized Ion Current [2]: 46.8
17 | P.VGPPGPPGPPGPPGPP.: C-terminal FAP cleavage fragment, 100 kDa recombinant human gelatin (PVGPPGPPGPPGPPGPP) | 19 | 9.05 | relative abundance of fragment by integrated ion current [3]: most abundantly identified fragment
